Experimental data reported in paper PMC12529927, “Functional microRNA targeting without seed pairing”.

Columns and labels:
[1] = target: T1, AGO2 (loaded with guide RNA) (Homo sapiens, UniProt Q9UKV8 1-859); assay: filter binding; no boost over m9_22; 18 mM HEPES pH 7.4, 100 mM K-acetate, 1 mM Mg-acetate, 0.01% IGEPAL, 0.01 mg/mL yeast tRNA, 5 mM DTT, BSA, glycerol, 37 C, 4 h, 1-5 pM target; kinetics with 10; settings: protein: recombinant, tags: 3xFLAG-SUMOEu1 (removed by SENPEuB cleavage), label: 32P target, offset +3
[2] = target: T1, AGO2 (loaded with guide RNA); assay: filter binding; modest boost over m9_22; 18 mM HEPES pH 7.4, 100 mM K-acetate, 1 mM Mg-acetate, 0.01% IGEPAL, 0.01 mg/mL yeast tRNA, 5 mM DTT, BSA, glycerol, 37 C, 4 h, 1-5 pM target; kinetics with 10; settings: protein: recombinant, tags: 3xFLAG-SUMOEu1 (removed by SENPEuB cleavage), label: 32P target, offset +3
[3] = target: T1, AGO2 (loaded with guide RNA); assay: filter binding; modest boost over m11_23; 18 mM HEPES pH 7.4, 100 mM K-acetate, 1 mM Mg-acetate, 0.01% IGEPAL, 0.01 mg/mL yeast tRNA, 5 mM DTT, BSA, glycerol, 37 C, 4 h, 1-5 pM target; kinetics with 10; settings: protein: recombinant; tags: 3xFLAG-SUMOEu1 (removed by SENPEuB cleavage); label: 32P target; g11-23 and g2-6 paired, offset +2
[4] = target: T1, AGO2 (loaded with guide RNA); assay: filter binding; length-matched; slightly weaker than m2_6; 18 mM HEPES pH 7.4, 100 mM K-acetate, 1 mM Mg-acetate, 0.01% IGEPAL, 0.01 mg/mL yeast tRNA, 5 mM DTT, BSA, glycerol, 37 C, 4 h, 1-5 pM target; kinetics with 10; settings: protein: recombinant; tags: 3xFLAG-SUMOEu1 (removed by SENPEuB cleavage); label: 32P target; g11-23 and g2-5 paired, offset +2

T1 sequence (Q9UKV8 whole entry): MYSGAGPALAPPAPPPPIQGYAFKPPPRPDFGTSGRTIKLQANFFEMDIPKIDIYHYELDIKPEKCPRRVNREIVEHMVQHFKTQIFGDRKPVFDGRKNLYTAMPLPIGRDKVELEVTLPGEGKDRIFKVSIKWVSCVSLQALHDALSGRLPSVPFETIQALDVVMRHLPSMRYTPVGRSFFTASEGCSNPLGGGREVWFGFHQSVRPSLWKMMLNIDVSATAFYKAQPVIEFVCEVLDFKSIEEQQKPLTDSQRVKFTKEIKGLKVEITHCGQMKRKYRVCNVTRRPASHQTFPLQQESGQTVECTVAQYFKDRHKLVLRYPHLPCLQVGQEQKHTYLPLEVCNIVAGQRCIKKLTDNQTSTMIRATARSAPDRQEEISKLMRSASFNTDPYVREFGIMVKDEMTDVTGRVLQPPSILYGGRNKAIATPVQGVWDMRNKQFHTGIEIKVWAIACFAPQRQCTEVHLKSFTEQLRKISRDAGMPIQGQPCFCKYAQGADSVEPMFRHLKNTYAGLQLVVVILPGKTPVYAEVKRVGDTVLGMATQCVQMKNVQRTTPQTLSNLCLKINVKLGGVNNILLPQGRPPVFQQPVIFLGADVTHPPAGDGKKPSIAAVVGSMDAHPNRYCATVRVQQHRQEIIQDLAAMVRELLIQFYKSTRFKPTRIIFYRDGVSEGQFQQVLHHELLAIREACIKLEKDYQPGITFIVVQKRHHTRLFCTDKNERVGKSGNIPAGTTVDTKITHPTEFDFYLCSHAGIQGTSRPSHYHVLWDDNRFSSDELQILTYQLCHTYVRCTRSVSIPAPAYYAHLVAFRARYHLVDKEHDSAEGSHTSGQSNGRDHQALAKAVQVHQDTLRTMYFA

B1: miR-124 mut / m9_22|+3|m2 (mixed)
RNA 1: UCUGGCUCGCGGUGAAUGCCAA
RNA 2: UUUUUUGGCAUUCACCGCUUUUUUUUUGUUUU
modifications: 5'-phosphate guide
binding result ([1]; g9-22 and g2 paired): binds

B2: miR-124 mut / m9_22|+3|m2_4 (mixed)
RNA 1: UCUGGCUCGCGGUGAAUGCCAA
RNA 2: UUUUUUGGCAUUCACCGCUUUUUUUCAGUUUU
modifications: 5'-phosphate guide
binding result ([2]; g9-22 and g2-4 paired): binds

B3: miR-124 mut / m9_22|+3|m2_3 (mixed)
RNA 1: UCUGGCUCGCGGUGAAUGCCAA
RNA 2: UUUUUUGGCAUUCACCGCUUUUUUUUAGUUUU
modifications: 5'-phosphate guide
binding result ([1]; g9-22 and g2-3 paired): binds

B4: miR-124 mut / m9_22|+3|m2_5 (mixed)
RNA 1: UCUGGCUCGCGGUGAAUGCCAA
RNA 2: UUUUUUGGCAUUCACCGCUUUUUUCCAGUUUU
modifications: 5'-phosphate guide
binding result ([2]; g9-22 and g2-5 paired): binds

B5: miR-155 mut / m11_23|+2|m2_6 (mixed)
RNA 1: UUCGUGCUAAUCGUGAUAGGGGU
RNA 2: UUUUACCCCUAUCACGACCUUUUCACGAUUUU
modifications: 5'-phosphate guide
binding result [3]: binds

B6: miR-155 mut / m11_23|+2|m2_5 (repeat) (mixed)
RNA 1: UUCGUGCUAAUCGUGAUAGGGGU
RNA 2: UUUUACCCCUAUCACGACCUUUUUACGAUUUU
modifications: 5'-phosphate guide
binding result [4]: binds
